Measurements from the Immune Epitope Database (IEDB).

How the values were obtained:
HLA-A*24:02 = assay: IEDB peptide-MHC binding, purified MHC/competitive/fluorescence; ≥ and ≤ were set here for values at or beyond the usual limits of such assays
HLA-A*02:01 [1] = assay: as above
HLA-B*07:02 = assay: IEDB peptide-MHC binding, purified MHC/competitive/radioactivity; filed as Kd, often an IC50 or EC50 that approximates it; ≥ and ≤ were set here for values at or beyond the usual limits of such assays
HLA-B*35:01 = assay: as above
HLA-B*51:01 = assay: as above
HLA-B*53:01 = assay: as above
HLA-B*54:01 = assay: as above
HLA-A*30:01 = assay: as above
HLA-A*03:01 = assay: as above
HLA-A*11:01 [2] = assay: as above; conditions: source organism: Vaccinia virus WR
HLA-A*31:01 = assay: as above; conditions: source organism: Vaccinia virus WR
HLA-A*33:01 = assay: as above; conditions: source organism: Vaccinia virus WR
HLA-A*68:01 = assay: as above; conditions: source organism: Vaccinia virus WR
HLA-A*02:01 [3] = assay: IEDB peptide-MHC binding, purified MHC/direct/fluorescence; filed as Kd, often an IC50 or EC50 that approximates it; ≥ and ≤ were set here for values at or beyond the usual limits of such assays; conditions: source organism: SARS-CoV1
HLA-A*11:01 [4] = assay: as above; conditions: source organism: SARS-CoV1
HLA-B*15:01 = assay: as above; conditions: source organism: SARS-CoV1
HLA-B*27:05 = assay: as above; conditions: source organism: SARS-CoV1
HLA-B*40:01 = assay: as above; conditions: source organism: SARS-CoV1
HLA-A*01:01 = assay: IEDB peptide-MHC binding, purified MHC/competitive/radioactivity; filed as Kd, often an IC50 or EC50 that approximates it; ≥ and ≤ were set here for values at or beyond the usual limits of such assays
HLA-A*02:01 [5] = assay: IEDB peptide-MHC binding, purified MHC/competitive/fluorescence; filed as Kd, often an IC50 or EC50 that approximates it; ≥ and ≤ were set here for values at or beyond the usual limits of such assays
[6] = source organism: Zaire ebolavirus
[7] = source organism: Triticum aestivum
[8] = source organism: Vaccinia virus WR
[9] = source organism: Dengue virus 1 Brazil/97-11/1997
[10] = source organism: SARS coronavirus Tor2
[11] = source organism: Dengue virus 3 Martinique/1243/1999
[12] = source organism: Sudan ebolavirus
[13] = source organism: Vaccinia virus Copenhagen
[14] = source organism: Mammarenavirus guanaritoense

PKAENTNTS
IC50 (HLA-A*24:02; [6]): 61000 nM

QDGLICGLR
IC50 (HLA-A*02:01 [1]; [6]): 13300 nM | IC50 (HLA-A*24:02; [6]): 428 nM

QGLIQYPTA
IC50 (HLA-A*02:01 [1]; [6]): 46100 nM | IC50 (HLA-A*24:02; [6]): 12600 nM

QPFPSQQPY
Kd (HLA-B*07:02; [7]): ≥ 77500 nM | Kd (HLA-B*35:01; [7]): 66.8 nM | Kd (HLA-B*51:01; [7]): ≥ 43500 nM | Kd (HLA-B*53:01; [7]): 7550 nM | Kd (HLA-B*54:01; [7]): ≥ 78100 nM

QPQEQVPLV
Kd (HLA-B*07:02; [7]): ≥ 77500 nM | Kd (HLA-B*35:01; [7]): ≥ 23700 nM | Kd (HLA-B*51:01; [7]): 4830 nM | Kd (HLA-B*53:01; [7]): ≥ 36600 nM | Kd (HLA-B*54:01; [7]): 12100 nM

QPQQLPQFEEI
Kd (HLA-B*07:02; [7]): ≥ 64000 nM | Kd (HLA-B*35:01; [7]): ≥ 63700 nM | Kd (HLA-B*51:01; [7]): 14100 nM | Kd (HLA-B*53:01; [7]): ≥ 63700 nM | Kd (HLA-B*54:01; [7]): ≥ 63700 nM

QVHAEQGLI
IC50 (HLA-A*24:02; [6]): 47000 nM

RAKSPTRQS
Kd (HLA-A*30:01; [8]): 260 nM

RCLKPVILK
Kd (HLA-A*03:01; [9]): 156 nM | Kd (HLA-A*30:01; [9]): 220 nM

RDGVKRLEE
IC50 (HLA-A*24:02; [6]): ≥ 89800 nM

RPNHTIKGSF
Kd (HLA-B*07:02; [10]): 57.7 nM | Kd (HLA-B*35:01; [10]): ≥ 69900 nM | Kd (HLA-B*51:01; [10]): ≥ 69600 nM | Kd (HLA-B*53:01; [10]): ≥ 69900 nM | Kd (HLA-B*54:01; [10]): ≥ 69900 nM

RPSIGNVFKA
Kd (HLA-B*07:02; [8]): 3830 nM | Kd (HLA-B*35:01; [8]): ≥ 69900 nM | Kd (HLA-B*51:01; [8]): ≥ 69600 nM | Kd (HLA-B*53:01; [8]): ≥ 36400 nM | Kd (HLA-B*54:01; [8]): 644 nM

RVRNRVSTG
Kd (HLA-A*30:01; [11]): 115 nM

RWGFRSGVP
IC50 (HLA-A*02:01 [1]; [12]): 16400 nM | IC50 (HLA-A*24:02; [12]): 16700 nM

SFFVWVIIL
IC50 (HLA-A*24:02; [12]): ≥ 72500 nM

SINVEYRFL
IC50 (HLA-A*02:01 [1]; [8]): 27200 nM | IC50 (HLA-A*24:02; [8]): 27700 nM

SPMLYQLLEA
Kd (HLA-B*07:02; [8]): 94 nM | Kd (HLA-B*35:01; [8]): 143 nM | Kd (HLA-B*51:01; [8]): ≥ 69600 nM | Kd (HLA-B*53:01; [8]): 228 nM | Kd (HLA-B*54:01; [8]): 8.77 nM

SPMVIATTDM
Kd (HLA-B*07:02; [8]): 21.6 nM | Kd (HLA-B*35:01; [8]): 66.6 nM | Kd (HLA-B*51:01; [8]): ≥ 52700 nM | Kd (HLA-B*53:01; [8]): 747 nM | Kd (HLA-B*54:01; [8]): 1040 nM

SPSGVYQCAM
Kd (HLA-B*07:02; [10]): 6.09 nM | Kd (HLA-B*35:01; [10]): 26.3 nM | Kd (HLA-B*51:01; [10]): 1070 nM | Kd (HLA-B*53:01; [10]): 748 nM | Kd (HLA-B*54:01; [10]): 2810 nM

SPYNSQNAVA
Kd (HLA-B*07:02; [10]): 59.4 nM | Kd (HLA-B*35:01; [10]): 8240 nM | Kd (HLA-B*51:01; [10]): 3470 nM | Kd (HLA-B*53:01; [10]): 15900 nM | Kd (HLA-B*54:01; [10]): 1.4 nM

STSSSYLYA
Kd (HLA-A*30:01; [13]): 13.3 nM

TFRERYSYK
Kd (HLA-A*03:01; [8]): 73.6 nM | Kd (HLA-A*11:01 [2]): 43.7 nM | Kd (HLA-A*30:01; [8]): 0.885 nM | Kd (HLA-A*31:01): 14.6 nM | Kd (HLA-A*33:01): 28.8 nM | Kd (HLA-A*68:01): 127 nM

TPNNFSSIV
Kd (HLA-B*07:02; [14]): 1370 nM | Kd (HLA-B*35:01; [14]): 1810 nM | Kd (HLA-B*51:01; [14]): 1250 nM | Kd (HLA-B*53:01; [14]): 7580 nM | Kd (HLA-B*54:01; [14]): 408 nM

TPNYMKLLV
Kd (HLA-B*07:02; [8]): 51.3 nM | Kd (HLA-B*35:01; [8]): 8.41 nM | Kd (HLA-B*51:01; [8]): ≥ 77500 nM | Kd (HLA-B*54:01; [8]): 30.7 nM

VPDADPPIPY
Kd (HLA-B*07:02; [8]): 2020 nM | Kd (HLA-B*35:01; [8]): 142 nM | Kd (HLA-B*51:01; [8]): ≥ 69600 nM | Kd (HLA-B*53:01; [8]): 1650 nM | Kd (HLA-B*54:01; [8]): 19300 nM

VPLVQQQQFL
Kd (HLA-B*07:02; [7]): 8750 nM | Kd (HLA-B*35:01; [7]): 16100 nM | Kd (HLA-B*51:01; [7]): 5910 nM | Kd (HLA-B*53:01; [7]): 4820 nM | Kd (HLA-B*54:01; [7]): ≥ 69900 nM

VQQESSFVM
Kd (HLA-A*02:01 [3]): 1070 nM | Kd (HLA-A*11:01 [4]): ≥ 20700 nM | Kd (HLA-B*15:01): 67.4 nM | Kd (HLA-B*27:05): 4770 nM | Kd (HLA-B*40:01): 7460 nM

VTEEIAVQNW
Kd (HLA-A*01:01; source organism: Dengue virus 2 Jamaica/1409/1983): ≥ 38700 nM

YHKILTAGL
IC50 (HLA-A*24:02; [6]): 7410 nM

YLLEMLWRL
Kd (HLA-A*02:01 [5]; source organism: Human herpesvirus 4 strain B95-8): 4.5 nM

YLSDSAINI
Kd (HLA-A*02:01 [5]; [13]): 1.3 nM

YTDRKWCFD
Kd (HLA-A*01:01; [11]): 597 nM
